This data set concerns the molecule itself. The experiment in a line: native gel or EMSA; 10% native-PAGE of purified recombinant AtAPX1 (total protein, SEC fractions F1-F3, and protein treated with GSNO, NaHS or SIN-1).

B1: Cytosol type APX1 from Arabidopsis thaliana (AtAPX1), recombinant (enzyme, UniProt Q05431 1-250, looked up)
chain: MTKNYPTVSEDYKKAVEKCRRKLRGLIAEKNCAPIMVRLAWHSAGTFDCQSRTGGPFGTMRFDAEQAHGANSGIHIALRLLDPIREQFPTISFADFHQLAGVVAVEVTGGPDIPFHPGREDKPQPPPEGRLPDATKGCDHLRDVFAKQMGLSDKDIVALSGAHTLGRCHKDRSGFEGAWTSNPLIFDNSYFKELLSGEKEGLLQLVSDKALLDDPVFRPLVEKYAADEDAFFADYAEAHMKLSELGFADA
notes: Ascorbate peroxidase 1, cytosolic (AtAPX1), Arabidopsis thaliana; 27 kDa on SDS-PAGE; Heme enzyme; also called ascorbate peroxidase 1; recombinant AtAPX1 protein; source: E. coli BL21 (DE3), pET28a, purified (Ni-NTA, thrombin cleavage of the His-tag, SEC)
As for B1, the “stoichiometry N” value is 2.

B2: Tyrosine-nitrated recombinant AtAPX1 (SIN-1-treated) (enzyme, Arabidopsis thaliana, UniProt Q05431 1-250, looked up)
chain: MTKNYPTVSEDYKKAVEKCRRKLRGLIAEKNCAPIMVRLAWHSAGTFDCQSRTGGPFGTMRFDAEQAHGANSGIHIALRLLDPIREQFPTISFADFHQLAGVVAVEVTGGPDIPFHPGREDKPQPPPEGRLPDATKGCDHLRDVFAKQMGLSDKDIVALSGAHTLGRCHKDRSGFEGAWTSNPLIFDNSYFKELLSGEKEGLLQLVSDKALLDDPVFRPLVEKYAADEDAFFADYAEAHMKLSELGFADA
modifications: tyrosine nitration (SIN-1 treatment); positions not determined in this paper
notes: Ascorbate peroxidase 1, cytosolic (AtAPX1), Arabidopsis thaliana; same construct as m1; also called SIN-1-treated protein; source: E. coli BL21 (DE3), purified, then incubated with SIN-1 (0-10 mM) at 37°C for 1 h in the dark
Take B2: the binding result is reported as “binds”.

B3: S-sulfhydrated recombinant AtAPX1 (NaHS-treated) (enzyme, Arabidopsis thaliana, UniProt Q05431 1-250, looked up)
chain: MTKNYPTVSEDYKKAVEKCRRKLRGLIAEKNCAPIMVRLAWHSAGTFDCQSRTGGPFGTMRFDAEQAHGANSGIHIALRLLDPIREQFPTISFADFHQLAGVVAVEVTGGPDIPFHPGREDKPQPPPEGRLPDATKGCDHLRDVFAKQMGLSDKDIVALSGAHTLGRCHKDRSGFEGAWTSNPLIFDNSYFKELLSGEKEGLLQLVSDKALLDDPVFRPLVEKYAADEDAFFADYAEAHMKLSELGFADA
modifications: S-sulfhydration of cysteine (NaHS treatment); positions not determined in this paper
notes: Ascorbate peroxidase 1, cytosolic (AtAPX1), Arabidopsis thaliana; same construct as m1; not mapped here; also called NaHS-treated AtAPX1; source: E. coli BL21 (DE3), purified, then incubated with NaHS (10 nM-100 μM) at 4°C for 30 min in the dark
Turning to B3, the binding result is listed as “binds”.

B4: S-nitrosylated recombinant AtAPX1 (GSNO-treated) (enzyme, Arabidopsis thaliana, UniProt Q05431 1-250, looked up)
chain: MTKNYPTVSEDYKKAVEKCRRKLRGLIAEKNCAPIMVRLAWHSAGTFDCQSRTGGPFGTMRFDAEQAHGANSGIHIALRLLDPIREQFPTISFADFHQLAGVVAVEVTGGPDIPFHPGREDKPQPPPEGRLPDATKGCDHLRDVFAKQMGLSDKDIVALSGAHTLGRCHKDRSGFEGAWTSNPLIFDNSYFKELLSGEKEGLLQLVSDKALLDDPVFRPLVEKYAADEDAFFADYAEAHMKLSELGFADA
modifications: S-nitrosylation of cysteine (GSNO treatment); positions not determined in this paper
notes: Ascorbate peroxidase 1, cytosolic (AtAPX1), Arabidopsis thaliana; same construct as m1; not mapped here; also called S-nitrosylated APX1; GSNO-treated AtAPX1; source: E. coli BL21 (DE3), purified, then incubated with GSNO (0-1 mM) at 25°C for 30 min in the dark
Take B4: the binding result is reported as “binds”.

(Values after publication PMC8236860, “Regulation of Dual Activity of Ascorbate Peroxidase 1 From Arabidopsis thaliana by Conformational Changes and Posttranslational Modifications” (Frontiers in Plant Science, 2021).)
